Measured values: PMC7905944 (Science signaling, 2020)

Target: the molecule itself
Assay: cross-linking

B1: endogenous LGR5 of LoVo cells (receptor, human (endogenous in LoVo), UniProt O75473 22-907, looked up)
chain: GSSPRSGVLLRGCPTHCHCEPDGRMLLRVDCSDLGLSELPSNLSVFTSYLDLSMNNISQLLPNPLPSLRFLEELRLAGNALTYIPKGAFTGLYSLKVLMLQNNQLRHVPTEALQNLRSLQSLRLDANHISYVPPSCFSGLHSLRHLWLDDNALTEIPVQAFRSLSALQAMTLALNKIHHIPDYAFGNLSSLVVLHLHNNRIHSLGKKCFDGLHSLETLDLNYNNLDEFPTAIRTLSNLKELGFHSNNIRSIPEKAFVGNPSLITIHFYDNPIQFVGRSAFQHLPELRTLTLNGASQITEFPDLTGTANLESLTLTGAQISSLPQTVCNQLPNLQVLDLSYNLLEDLPSFSVCQKLQKIDLRHNEIYEIKVDTFQQLLSLRSLNLAWNKIAIIHPNAFSTLPSLIKLDLSSNLLSSFPITGLHGLTHLKLTGNHALQSLISSENFPELKVIEMPYAYQCCAFGVCENAYKISNQWNKGDNSSMDDLHKKDAGMFQAQDERDLEDFLLDFEEDLKALHSVQCSPSPGPFKPCEHLLDGWLIRIGVWTIAVLALTCNALVTSTVFRSPLYISPIKLLIGVIAAVNMLTGVSSAVLAGVDAFTFGSFARHGAWWENGVGCHVIGFLSIFASESSVFLLTLAALERGFSVKYSAKFETKAPFSSLKVIILLCALLALTMAAVPLLGGSKYGASPLCLPLPFGEPSTMGYMVALILLNSLCFLMMTIAYTKLYCNLDKGDLENIWDCSMVKHIALLLFTNCILNCPVAFLSFSSLINLTFISPEVIKFILLVVVPLPACLNPLLYILFNPHFKEDLVSLRKQTYVWTRSKHPSLMSINSDDVEKQSCDSTQALVTFTSSSITYDLPPSSVPSPAYPVTESCHLSSVAFVPCL
stoichiometry N: 2
